Data published in PMC5551684.
Read-outs that look alike come from different tables or passages of the source.

B1: DNA16ACV (dsDNA)
DNA 1: GCTCTGTTCCGGTTTG
DNA 2: CATGATTAGATGAAACACAAACCGGAACAGAGC
modifications: acyclovir monophosphate (acyclic G) at 3' end of primer, position 16 (printed A*)
B2: DNA16dd (dsDNA)
DNA 1: GCTCTGTTCCGGTTTG
DNA 2: B1 DNA 2
modifications: 2',3'-dideoxyG at 3' end of primer, position 16 (printed D*)
B3: DNA16GCV (dsDNA)
DNA 1: GCTCTGTTCCGGTTTG
DNA 2: B1 DNA 2
modifications: ganciclovir monophosphate (acyclic G) at 3' end of primer, position 16 (printed G*)

Tests used:
[1] = molecular target: T1, HSV-1 DNA polymerase catalytic subunit UL30 (exonuclease proficient) (Herpes simplex virus 1, UniProt P04293 1-1235); assay: competition
T1 sequence (P04293 whole entry): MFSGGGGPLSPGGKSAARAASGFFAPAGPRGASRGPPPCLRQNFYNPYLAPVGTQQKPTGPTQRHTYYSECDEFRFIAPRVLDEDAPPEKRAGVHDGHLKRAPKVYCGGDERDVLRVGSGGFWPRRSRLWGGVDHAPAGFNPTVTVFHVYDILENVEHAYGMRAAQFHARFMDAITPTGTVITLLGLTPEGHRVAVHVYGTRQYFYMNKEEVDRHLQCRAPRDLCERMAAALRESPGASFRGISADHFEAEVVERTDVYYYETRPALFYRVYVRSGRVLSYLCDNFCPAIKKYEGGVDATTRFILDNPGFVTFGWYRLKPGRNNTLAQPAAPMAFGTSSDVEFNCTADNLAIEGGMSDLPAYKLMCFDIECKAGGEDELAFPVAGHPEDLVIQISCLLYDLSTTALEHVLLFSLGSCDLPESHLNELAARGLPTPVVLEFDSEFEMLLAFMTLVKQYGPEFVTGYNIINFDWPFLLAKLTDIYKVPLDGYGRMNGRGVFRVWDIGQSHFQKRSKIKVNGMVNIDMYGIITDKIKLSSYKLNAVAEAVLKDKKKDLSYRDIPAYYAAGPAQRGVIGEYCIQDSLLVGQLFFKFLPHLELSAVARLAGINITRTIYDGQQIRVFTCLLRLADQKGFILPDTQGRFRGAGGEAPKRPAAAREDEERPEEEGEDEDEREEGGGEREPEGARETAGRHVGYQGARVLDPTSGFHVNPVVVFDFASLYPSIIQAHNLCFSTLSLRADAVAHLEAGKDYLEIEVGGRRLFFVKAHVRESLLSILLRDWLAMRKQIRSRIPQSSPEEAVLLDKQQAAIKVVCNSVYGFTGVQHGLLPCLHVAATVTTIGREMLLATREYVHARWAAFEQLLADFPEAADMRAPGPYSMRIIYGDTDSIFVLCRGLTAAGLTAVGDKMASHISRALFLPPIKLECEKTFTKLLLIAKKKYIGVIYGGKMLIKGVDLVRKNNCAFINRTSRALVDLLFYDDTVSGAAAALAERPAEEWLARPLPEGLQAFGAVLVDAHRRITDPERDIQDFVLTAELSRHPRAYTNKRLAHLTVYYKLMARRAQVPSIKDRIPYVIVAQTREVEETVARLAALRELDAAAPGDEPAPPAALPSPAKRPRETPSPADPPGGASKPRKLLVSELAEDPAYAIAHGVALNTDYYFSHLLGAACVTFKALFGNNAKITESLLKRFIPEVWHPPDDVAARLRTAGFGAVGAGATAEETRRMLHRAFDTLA

[2] = molecular target: T1, HSV-1 DNA polymerase catalytic subunit …; assay: competition; remark: listed apart in the source

Binder | binding result [1] | binding result [2]
B1 | binds | 
B2 | binds | 
B3 | binds | 
GCTCTGTTCCGGTTTG (ssDNA, 2',3'-dideoxyG at 3' end, position 16 (printed D*)) [DNA16ddss] |  | binds
GCTCTGTTCCGGTTTG (ssDNA, acyclovir monophosphate (acyclic G) at 3' end, position 16 (printed A*)) [DNA16ACVss] |  | binds
